Assays:
[1] = target: TNF alpha (species not given); assay: cell-based or functional assay
[2] = target: TNF alpha (species not given); assay: cell-based or functional assay; remark: listed apart in the source

IC50 value, TNFα-induced IL-6 release assay (whole blood) [2]: 0.11 nM
B1: BPC1500 (antibody, V domains shown)
VH: EVQLVESGGGLVQPGRSLRLSCAASGFTFDDHALHWVRQAPGKGLEWVSAITWNSGHIDYADSVEGRFTISRDNAKNSLYLQMNSLRAEDTAVYYCAKVRYLSTASSLDYWGQGTLVTVSS
VL: not shown
IC50 value, L929 neutralisation assay (cell viability) [1]: 0.13 µg/mL

From patent US20130243764A1 (published 2013)
